According to patent US20130041138A1, “ANTIBODIES THAT BIND TO PSCA PROTEINS FOR DIAGNOSIS OF CANCER” (priority 2003, published 2013):

B1: Ha1-5.99: fully human gamma 2 anti-PSCA monoclonal antibody from XenoMouse; ATCC PTA-6703; sequences FIG. 2E-2F (antibody, V domains shown)
VH: QVHLQQWGAGLLKPSETLSLTCAVYGGSFSGYYWSWIRQPPGKGLEWIGEINHSGSTSYKPSLKSRVTVSVDTSKNQFSLKLSYVTAADTAVYYCARDRGDYGDFLFDYWGQGTLVTVSSASTKGPSVFPLAPSSKST
VL: SPGERATLSCRASQSIGSTYLAWYQQKPGQAPRLLIYGASSRATGIPERFSGSGSGTDFTLTISGLEPEDFAVFYCQQCGSSPPTFGQGTKVEIKRTVAAPSVFIFPPSDEQLKSGTASVVCLLNNFYPREAKVQWKVDNA
B2: Ha1-4.37: fully human gamma 1 anti-PSCA monoclonal antibody from XenoMouse; ATCC PTA-6702; sequences FIG. 2P-2Q (antibody, V domains shown)
VH: CPGALQESGPGLVRPSQTLSLTCTVSGGSISSGGTYYWIWIRQHPGKGLEWIGYIYYSGSTYYNPSLKSRVTISVDTSKNQFSLKLSSVTAADTAVYYCARDGITMVRGISGGMDVWGQGTTVTVSSASTKGPSVKGPSVF
VL: ASVGDRVTITCRASQSISSHLNWYQQKPGKAPKLLIYAASSLQSGVPSRFSGSGSGTDFTLSISSLQPEDFATYFCQQSYSIPRTFGQGTKVEITRTVAAPSVFIFPPSDEQLKSGTASVVCLLNNFYPREAKVQWKVDNALQSG

What was measured:
[1] = molecular target: T1, cell surface PSCA on PSCA-expressing cells (endogenous or recombinant) (Homo sapiens, UniProt O43653); test: PSCA human MAb screening by FACS; type: binding
T1 construct: host or cells: PSCA-expressing cells (endogenous or recombinant)
Experimental: FIGS. 9A and 9B. Screening for human PSCA antibodies by FACS. Antibody concentration from supernatants was determined by ELISA. 50 ul/well of (neat) was added to 96-well FACS plates and serially diluted. PSCA-expressing cells were added (endogenous or recombinant, 50,000 cells/well) and the mixture incubated at 4° C. for two hours. Following incubation, the cells were washed with FACS Buffer and further incubated with 100 ul of detection antibody (anti-hIgG-PE) for 45 minutes at 4° C. At the end of incubation, the cells were washed with FACS Buffer, fixed with formaldehyde and analyzed using FACScan. Data were analyzed using CellQuest Pro software. Solid histograms represent data from negative control cells and open histograms indicate data from PSCA-positive cells.
Primary hybridoma screening for MAbs to PSCA was performed by FACS. The protocol was as follows: 50 ul/well of hybridoma supernatant (neat) or purified antibodies (in serial dilutions) were added to 96-well FACS plates and mixed with PSCA-expressing cells (endogenous or recombinant, 50,000 cells/well). The mixture was incubated at 4° C. for two hours. At the end of incubation, the cells were washed with FACS Buffer and incubated with 100 ul of detection antibody (anti-hIgG-PE) for 45 minutes at 4° C. At the end of incubation, the cells were washed with FACS Buffer, fixed with Formaldehyde and analyzed using FACScan. Data were analyzed using CellQuest Pro software. Filled histograms indicate data from negative control cells, and open histograms represent data from PSCA-positive cells (FIG. 9).
Positive hybridomas identified from primary screens were transferred to 24-well plates and supernatants collected for confirmatory screens. Confirmatory screens included FACs analysis on B300.19-PSCA/300.19-neo, Rat1-PSCA/Rat1-neo, PC3-PSCA/neo, SW780 (bladder cancer cell line), LAPC9AI (prostate cancer cell line), HPAC (pancreatic cancer cell line), and ELISA assay using Tag5-PSCA, GST-PSCA, GST-PSCA N-term, Med. C-Term, and pET-PSCA.

[2] = tested on: SW780 human bladder tumors; test: Subcutaneous SW780 bladder tumor xenograft; type: in vivo, ICR SCID mice; conditions: 250 mg/mouse i.p. two times a week, 7 doses, from day of injection; t test
Experimental: (§1) FIG. 27. Human PSCA MAbs Inhibit the Growth of SW780 Bladder Tumors in SCID Mice. Human SW780 bladder cancer cells (2×10^6/mouse) were injected subcutaneously into immunodeficient ICR SCID mice (Taconic Farm, Germantown, N.Y.). The mice were randomized into groups (n=10 animals/group) and treatment with the indicated human PSCA MAb initiated the same day. Antibodies (250 mg/mouse) were delivered intraperitoneally two times a week for a total of 7 doses. […] Statistical analyses were performed using at test (two-sided, α=0.05).
as §1, with “In another experiment,” for “FIG. 27. Human PSCA MAbs Inhibit the Growth of SW780 Bladder Tumors in SCID Mice.”, “α=0.05) (FIG. 27).” for “α=0.05).”

[3] = tested on: LAPC-9AI androgen-independent human prostate cancer xenografts; test: Established subcutaneous LAPC-9AI prostate cancer xenograft; type: in vivo, SCID mice; conditions: treatment from tumor volume 50 mm3, i.p. twice weekly, 5 doses until day 14; p<0.05
Experimental: FIG. 19. PSCA MAb Ha1-5.99 Inhibits the Growth of Established Prostate Cancer Xenografts in SCID mice. LAPC-9AI tumor cells (2.0×10^6 cells) were injected subcutaneously into male SCID mice. When tumor volume reached 50 mm3, the mice were randomized into groups (n=10 in each group) and treatment initiated intraperitoneally (i.p.) with HA1-5.99.1 or isotype MAb control as indicated. Animals were treated twice weekly for a total of 5 doses until study day 14. Tumor growth was monitored using caliper measurements every 3 to 4 days as indicated.
In another experiment, LAPC-9AI tumor cells (2.0×10^6 cells) were injected subcutaneously into male SCID mice. When tumor volume reached 50 mm3, the mice were randomized into groups (n=10 in each group) and treatment initiated intraperitoneally (i.p.) with HA1-5.99.1 or isotype MAb control as indicated Animals were treated twice weekly for a total of 5 doses until study day 14. Tumor growth was monitored using caliper measurements every 3 to 4 days as indicated. […] (FIG. 19).

[4] = tested on: B300.19-PSCA expressing cells; test: Complement mediated cytotoxicity; type: cell-based; conditions: 0-50 μg/ml antibody, rabbit complement serum, 2 hr 37° C., Alamar Blue
Experimental: (§2) FIG. 14. Complement mediated cytotoxicity of PSCA Mabs. PSCA antibodies (0-50 μg/ml) were diluted with RHB buffer (RPMI 1640, Gibco Life Technologies, 20 mM HEPES). B300.19-PSCA expressing cells were washed in RHB buffer and resuspended at a density of 10^6 cells/ml. In a typical assay, 50 μl of PSCA antibody, 50 μl of diluted rabbit complement serum (Cedarlane, Ontario, Can), and 50 μl of a cell suspension were added together into a flat-bottom tissue culture 96-well plate. The mixture was incubated for 2 hr. at 37° C. in a 5% CO2 incubator to facilitate complement-mediated cell lysis. […] The fluorescence in each well was read using a 96-well fluorometer with excitation at 530 nm and emission at 590 nm.
as §2, with “PSCA” for “FIG. 14. Complement mediated cytotoxicity of PSCA”, “antibodies were evaluated to determine their ability to mediate immune dependent cytotoxicity.” for “Mabs.”, “plate.” for “plate. The mixture was incubated for 2 hr. at 37° C. in a 5% CO2 incubator to facilitate complement-mediated cell lysis.”

Row | Molecule | react and bind with cell surface or immobilized PSCA [1] | binding to endogenous cell surface PSCA ([1]; PSCA expressed in prostate cancer xenograft cells) | inhibition of subcutaneous tumor growth [2] | inhibition of growth of established subcutaneous tumors [3] | complement dependent lysis of target cells [4]
1 | B1 | react and bind with cell surface or immobilized PSCA | bind endogenous cell surface PSCA | significantly inhibited the growth | significantly inhibited the growth | able to mediate complement dependent lysis
2 | B2 | react and bind with cell surface or immobilized PSCA |  | significantly inhibited the growth |  | 
